This is an account of results in PMC5536962 (Cell reports, 2015).

B1: GST-Mcm4 (1-471) (domain or fragment, yeast, UniProt P30665 1-471, looked up)
chain: MSQQSSSPTKEDNNSSSPVVPNPDSVPPQLSSPALFYSSSSSQGDIYGRNNSQNLSQGEGNIRAAIGSSPLNFPSSSQRQNSDVFQSQGRQGRIRSSASASGRSRYHSDLRSDRALPTSSSSLGRNGQNRVHMRRNDIHTSDLSSPRRIVDFDTRSGVNTLDTSSSSAPPSEASEPLRIIWGTNVSIQECTTNFRNFLMSFKYKFRKILDEREEFINNTTDEELYYIKQLNEMRELGTSNLNLDARNLLAYKQTEDLYHQLLNYPQEVISIMDQTIKDCMVSLIVDNNLDYDLDEIETKFYKVRPYNVGSCKGMRELNPNDIDKLINLKGLVLRSTPVIPDMKVAFFKCNVCDHTMAVEIDRGVIQEPARCERIDCNEPNSMSLIHNRCSFADKQVIKLQETPDFVPDGQTPHSISLCVYDELVDSCRAGDRIEVTGTFRSIPIRANSRQRVLKSLYKTYVDVVHVKKVSD
B3: GST-Mcm6 (1-439) (domain or fragment, yeast, UniProt P53091 1-439, looked up)
chain: MSSPFPADTPSSNRPSNSSPPPSSIGAGFGSSSGLDSQIGSRLHFPSSSQPHVSNSQTGPFVNDSTQFSSQRLQTDGSATNDMEGNEPARSFKSRALNHVKKVDDVTGEKVREAFEQFLEDFSVQSTDTGEVEKVYRAQIEFMKIYDLNTIYIDYQHLSMRENGALAMAISEQYYRFLPFLQKGLRRVVRKYAPELLNTSDSLKRSEGDEGQADEDEQQDDDMNGSSLPRDSGSSAAPGNGTSAMATRSITTSTSPEQTERVFQISFFNLPTVHRIRDIRSEKIGSLLSISGTVTRTSEVRPELYKASFTCDMCRAIVDNVEQSFKYTEPTFCPNPSCENRAFWTLNVTRSRFLDWQKVRIQENANEIPTGSMPRTLDVILRGDSVERAKPGDRCKFTGVEIVVPDVTQLGLPGVKPSSTLDTRGISKTTEGLNSGVTG

Common to all, as to test: pull-down
One test concerns the target T1, Mcm10 (GST tag removed) (yeast, UniProt P32354 1-571).
T1 sequence (looked up): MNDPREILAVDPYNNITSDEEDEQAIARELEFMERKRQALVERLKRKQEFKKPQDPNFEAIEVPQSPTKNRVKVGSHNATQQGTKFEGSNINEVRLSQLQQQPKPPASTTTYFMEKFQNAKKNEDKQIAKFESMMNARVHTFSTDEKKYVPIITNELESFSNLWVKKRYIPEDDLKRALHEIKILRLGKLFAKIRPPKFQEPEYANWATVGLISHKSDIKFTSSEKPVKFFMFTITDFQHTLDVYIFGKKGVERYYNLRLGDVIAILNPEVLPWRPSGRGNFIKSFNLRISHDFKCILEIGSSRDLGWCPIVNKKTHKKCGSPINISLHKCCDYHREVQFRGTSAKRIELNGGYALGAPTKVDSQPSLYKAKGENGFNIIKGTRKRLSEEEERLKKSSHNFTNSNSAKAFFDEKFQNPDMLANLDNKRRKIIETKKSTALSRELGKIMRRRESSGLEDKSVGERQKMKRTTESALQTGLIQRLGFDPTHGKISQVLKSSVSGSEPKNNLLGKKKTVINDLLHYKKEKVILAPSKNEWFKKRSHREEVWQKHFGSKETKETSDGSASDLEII

The target in the test “GST-Mcm4 (1-471)” is B1.
The test “GST-Mcm6 (1-439)” concerns the target B3.
Another test concerns the target T2, GST-Mcm10 (yeast, UniProt P32354 1-571).
T2 sequence (looked up): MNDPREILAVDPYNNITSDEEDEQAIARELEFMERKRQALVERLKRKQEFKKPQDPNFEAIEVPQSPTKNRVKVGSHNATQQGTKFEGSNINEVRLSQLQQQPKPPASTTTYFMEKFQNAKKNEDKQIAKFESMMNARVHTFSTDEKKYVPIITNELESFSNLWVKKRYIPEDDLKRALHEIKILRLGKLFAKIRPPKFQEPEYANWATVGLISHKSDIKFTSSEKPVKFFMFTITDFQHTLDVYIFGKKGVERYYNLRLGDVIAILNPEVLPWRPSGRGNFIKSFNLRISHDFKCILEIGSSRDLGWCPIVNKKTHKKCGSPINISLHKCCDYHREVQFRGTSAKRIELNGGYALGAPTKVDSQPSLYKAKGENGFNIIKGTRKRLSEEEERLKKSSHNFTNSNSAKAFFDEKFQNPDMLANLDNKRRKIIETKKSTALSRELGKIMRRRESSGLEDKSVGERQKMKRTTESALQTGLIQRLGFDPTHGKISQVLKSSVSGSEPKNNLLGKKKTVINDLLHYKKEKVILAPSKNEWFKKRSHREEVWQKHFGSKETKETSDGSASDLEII

As to B1, the binding result in the test with Mcm10 (GST tag removed) is listed as “binds”.

B2: 6His-Mcm2 (1-299) (domain or fragment, yeast, UniProt P29469 1-299, looked up)
chain: MSDNRRRRREEDDSDSENELPPSSPQQHFRGGMNPVSSPIGSPDMINPEGDDNEVDDVPDIDEVEEQMNEVDLMDDNMYEDYAADHNRDRYDPDQVDDREQQELSLSERRRIDAQLNERDRLLRNVAYIDDEDEEQEGAAQLDEMGLPVQRRRRRRQYEDLENSDDDLLSDMDIDPLREELTLESLSNVKANSYSEWITQPNVSRTIARELKSFLLEYTDETGRSVYGARIRTLGEMNSESLEVNYRHLAESKAILALFLAKCPEEMLKIFDLVAMEATELHYPDYARIHSEIHVRISD
For the molecule B2, the binding result with GST-Mcm4 (1-471), with GST-Mcm6 (1-439) and with GST-Mcm10 was “binds” in each case.

Regarding B3, the binding result with Mcm10 (GST tag removed) was “binds”.
